Reference: PMC11233918
Read-outs that look alike come from different tables or passages of the source.

Legend:
Assay in all cases: EMSA
SUMO-TDP-43 RRM1,2 [1] = target: T1, SUMO-TDP-43 RRM1,2 (human, UniProt Q13148 102-269)
SUMO-TDP-43 RRM1,2 [2] = target: T1, SUMO-TDP-43 RRM1,2; remark: listed apart in the source
SUMO-TDP-43 RRM1,2 [3] = target: T1, SUMO-TDP-43 RRM1,2; remark: listed apart in the source
SUMO-TDP-43 RRM1,2 [4] = target: T1, SUMO-TDP-43 RRM1,2; remark: listed apart in the source

T1 sequence (Q13148 102-269): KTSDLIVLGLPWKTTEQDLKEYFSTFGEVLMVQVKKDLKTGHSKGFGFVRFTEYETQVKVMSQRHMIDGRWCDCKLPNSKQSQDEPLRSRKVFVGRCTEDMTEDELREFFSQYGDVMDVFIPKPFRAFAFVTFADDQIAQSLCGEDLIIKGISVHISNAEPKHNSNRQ

B1: (GU)6 (ssRNA)
RNA: GUGUGUGUGUGU
modifications: see Table S1 (not in material)
B1: binds (SUMO-TDP-43 RRM1,2 [1]).

B2: ('AUG12')2 (ssRNA)
RNA: GUGUGAAUGAAUGUGUGAAUGAAU
modifications: 2'-O-methyl and phosphorothioate; positions in Table S1 (not in material)
B2: binds (SUMO-TDP-43 RRM1,2 [2]).

B3: (GU)16 (ssRNA)
RNA: GUGUGUGUGUGUGUGUGUGUGUGUGUGUGUGU
modifications: 2'-O-methyl and phosphorothioate; positions in Table S1 (not in material)
B3: binds (SUMO-TDP-43 RRM1,2 [3]).

B4: (CA)16 (ssRNA)
RNA: CACACACACACACACACACACACACACACACA
modifications: see Table S1 (not in material)
B4: no binding (SUMO-TDP-43 RRM1,2 [4]).

B5: A32 (ssRNA)
RNA: AAAAAAAAAAAAAAAAAAAAAAAAAAAAAAAA
modifications: see Table S1 (not in material)
B5: no binding (SUMO-TDP-43 RRM1,2 [4]).
